Results published in US8263350B2, “Molecular affinity clamp technology and uses thereof” (The University of Chicago, priority 2009, dated 2012).
Ends that are not written are not given here.

Columns and labels:
ePDZ-b2 = experiment: SPR binding of the new tag peptide to ePDZ-b2; conditions: FIG. 9, SPR, ePDZ-b2 immobilized
Description: The affinity clamps were immobilized and the target peptides in the form of yeast SUMO fusion protein were used as the analytes. (a) Sensorgrams for the interaction of the wild-type ARVCF peptide and ePDZ-b2. Data with 0, 10, 20, 40, 80 and 160 nM peptide are shown in black, and calculated curves from the global fittings of the 1:1 Langmuir binding model are in orange. The estimated dissociation constant is indicated. The peptide sequence is also shown. (b) Sensorgrams for the interaction of the new tag peptide to ePDZ-b2. Data with 0, 10, 20, 40 and 80 nM target are shown.
(§1) Affinity Measurements. SPR measurements were performed in 20 mM HEPES/NaOH buffer (pH 7.4), 150 mM NaCl, and 0.005% Tween 20 at 25° C. on a BIAcore 2000 instrument. The affinity clamp or the linker mutant was immobilized on a Ni-NTA chip to the level of approximate 300 RU, and different concentrations of SUMO-peptide fusion protein were injected. The kinetic data were analyzed using the one-to-one binding model in BIAEvaluation (BIAcore). For weak interactions (Kd>5 μM), Kd values were determined from the saturation curve of the maximum RU values.

[1] = tested on: ARVCF peptide (alanine substituted); experiment: Ala-scanning of the ARVCF peptide with SPR affinity measurements; assay type: binding; conditions: substitution at each of the four positions −7 to −4 of the ARVCF peptide
Source text: Alanine-scanning mutagenesis analysis. Although the phage-display library approach is powerful in determining general trends in sequence specificity, large-scale sequencing is necessary for quantitatively characterizing protein-interaction energetics (Skelton et al., 2003; Sidhu and Koide, 2007). This requirement is acute particularly when there is a strong amino acid preference and thus recovered clones are dominated by a particular pattern, as in our case above. Accordingly, to complement the library sorting experiments described above, the inventors performed Ala-scanning experiments of the ARVCF peptide coupled with affinity measurements using SPR. Because the goal was to understand the differences in target recognition of the affinity clamps, and because the sequence specificity of the C-terminal four residues is predominantly defined by the specificity of the parent PDZ domain, the inventors analyzed only those positions that differed between the ARVCF and δ-catenin peptides.
(§2) Site-directed mutagenesis. Mutant forms of the SUMO-ARVCF peptide fusion protein and linker mutants of affinity clamps were constructed using Kunkel mutagenesis.
Affinity Measurements. […] The kinetic data were analyzed using the one-to-one binding model in BIAEvaluation (BIAcore). […]

δ-catenin peptide = biological target: T1, δ-catenin peptide (Homo sapiens, UniProt Q9UQB3); experiment: SPR affinity measurement of affinity clamps with the δ-catenin peptide; assay type: binding
T1 construct: His tag (N, cleaved yes); made in house; host or cells: E. coli BL21(DE3)
Description: (§3) Protein Expression and Purification. All proteins used in this study were expressed using derivatives of the pHFT2 expression vector in E. coli BL21(DE3) cells. Protein expression was induced with 500 μM IPTG for three to five hours at 25° C. Proteins were purified with Ni affinity chromatography following standard protocols. When necessary, a second step of purification with Sephacryl S-100 column in PBS (50 mM sodium phosphate containing 150 mM NaCl, pH 7.4) was performed to ensure that proteins were monomeric. For protein crystallization and SPR experiments, the N-terminal His tag was cleaved with TEV protease and the cleaved protein was purified using Ni affinity chromatography.
as §1

ARVCF peptide = biological target: T2, ARVCF peptide (Homo sapiens, UniProt O00192); experiment: SPR affinity measurement of affinity clamps with the ARVCF peptide; assay type: binding; conditions: 25° C.
T2 construct: His tag (N, cleaved yes); made in house; host or cells: E. coli BL21(DE3)
Description: as §3, §2, §1

RGSIDTWV-COOH (RGSIDTWV-OH) [used in SPR as yeast SUMO fusion]
affinity compared with the original (ARVCF) peptide (ePDZ-b2): higher affinity
dissociation rate compared with the original (ARVCF) peptide (ePDZ-b2): much slower

B1: Erbin PDZ: wild-type Erbin PDZ domain, the parent capture domain of the affinity clamps (protein)
chain: EIRVRVEKDPELGFSISGGVGGRGNPFRPDDDGIFVTRVQPEGPASKLLQPGDKIIQANGYSFINIEHGQAVSLLKTFQNTVELIIVREV
decrease in binding (ΔΔG) on alanine substitution [1]: only small effects
discrimination between ARVCF peptide and δ-catenin peptide (δ-catenin peptide): almost equally
Kd (δ-catenin peptide; SPR, 25° C.): 6.3 µM
Specificity Index (δ-catenin peptide; ratio of the Kd for δ-catenin to the Kd for ARVCF): 3
Kd (ARVCF peptide): 2.2 µM
